The results in this text go back to article doi:10.1101/2023.01.17.524225 (bioRxiv, 2023).

The target in this assay is T1, GID4 (aa 116-300) (human, UniProt Q8IVV7 116-300).
T1 sequence: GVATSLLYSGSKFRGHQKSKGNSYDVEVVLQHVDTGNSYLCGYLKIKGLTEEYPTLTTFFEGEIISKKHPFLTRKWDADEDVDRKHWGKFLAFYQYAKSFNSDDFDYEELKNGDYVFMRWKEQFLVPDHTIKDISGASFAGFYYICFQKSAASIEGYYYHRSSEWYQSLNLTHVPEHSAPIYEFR
Put plainly: fluorescence polarisation.

Primed or numbered codes have the meaning given here. No end group written: not given here. FITC′ = not defined here

B1: C-terminally FITC-labelled PGLWKS peptide (peptide)
peptide: PGLWKS-{FITC′}
With B1, the binding result was “binds”.
